{"source": "paper PMC6952110", "about": "“A divergent CheW confers plasticity to nucleoid-associated chemosensory arrays” (PLoS Genetics, 2019)", "molecular_target": "T1, 6His-FrzCD (M. xanthus, UniProt P43500 1-417)", "T1 construct": "FrzCD, cytoplasmic methyl-accepting chemotaxis protein of the Frz system, Myxococcus xanthus; also called cytoplasmic MCP of the Frz system; source: E. coli BL21(DE3); in lysate (co-purification) and purified on NiNTA resin (BLi)", "T1 sequence (looked up)": "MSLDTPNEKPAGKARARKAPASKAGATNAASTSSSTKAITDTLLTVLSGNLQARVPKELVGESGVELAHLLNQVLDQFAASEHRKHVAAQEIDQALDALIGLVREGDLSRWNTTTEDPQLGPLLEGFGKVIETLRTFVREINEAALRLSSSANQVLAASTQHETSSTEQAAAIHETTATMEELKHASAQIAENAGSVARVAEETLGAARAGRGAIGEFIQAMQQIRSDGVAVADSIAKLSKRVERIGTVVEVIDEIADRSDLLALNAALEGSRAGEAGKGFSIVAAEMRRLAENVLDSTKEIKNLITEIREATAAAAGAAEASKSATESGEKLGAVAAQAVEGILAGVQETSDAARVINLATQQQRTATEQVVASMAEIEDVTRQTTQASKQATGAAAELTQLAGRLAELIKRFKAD", "experiment": "BLI; BLItz, 25°C; 6His-tagged ligand immobilised on Ni-NTA biosensors at 4 μM; GST-FrzB as analyte at 0.2 to 20 μM; Tris HCl 50 mM pH8, NaCl 300 mM; global 1:1 fit; double reference subtraction", "settings": "both partners purified", "data": [{"binder": "GST-FrzB (natural protein, M. xanthus, UniProt P43499 1-112, looked up, FrzB, CheW-like protein of the Frz chemosensory system, Myxococcus xanthus, Uniprot P43499; also called divergent CheW; source: E. coli BL21(DE3)) MDLLFFDIGATLYGTDASQVLRIDRALPEDLTLAELGLPHRGNRAIVFDTPEGEAHLKVDAVHGVRSIPVNSLRRMPPTAGAAAYAVGVCLEEARTVLLIDLVETARTQGRH", "values": [{"measurement": "Kd", "value": 700, "unit": "nM"}]}]}
